According to the supplement of paper PMC10567573:

B1: SFRS1 (parent)
chain: RDIDLKNRRGGPPFAFVEFEDPRD

Variants of: B1
Assay: protein stability index of a GFP-peptide fusion (GPS, HEK-293T) (PSI 1-6); higher = more stable
Conditions: c terminus: a fixed tail appended
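Further: lentivirally expressed fusions sorted by FACS into six bins by GFP to DsRed ratio, PSI derived from sequencing read proportions per bin multiplied by bin number.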

| Variant | protein stability index |
| --- | --- |
| RDIDLKNRRGGPPIAFVEFEDPRD | 4.37 |
| RDIDLKNRRGGPPPAFVEFEDPRD | 5.05 |
| RDIDLKNRRGGPPDAFVEFEDPRD | 4.86 |
| RDIDLKNRRGGPPLAFVEFEDPRD | 3.92 |
| RDIDLKNRRGGPPRAFVEFEDPRD | 4.66 |
| RDIDLKNRRGGPPQAFVEFEDPRD | 5.27 |
| RDIDLKNRRGGPPHAFVEFEDPRD | 5.01 |
| RDIDLKNRRGGPPVAFVEFEDPRD | 4.55 |
| RDIDLKNRRGGPPKAFVEFEDPRD | 4.51 |
| RDIDLKNRRGGPPMAFVEFEDPRD | 4.26 |
| RDIDLKNRRGGPPAAFVEFEDPRD | 5.04 |
| RDIDLKNRRGGPPSAFVEFEDPRD | 5.3 |
| RDIDLKNRRGGPPEAFVEFEDPRD | 5.48 |
| RDIDLKNRRGGPPCAFVEFEDPRD | 4.91 |
| RDIDLKNRRGGPPTAFVEFEDPRD | 4.9 |
| RDIDLKNRRGGPPGAFVEFEDPRD | 4.92 |
| RDIDLKNRRGGPPYAFVEFEDPRD | 4.28 |
| RDIDLKNRRGGPSFAFVEFEDPRD | 4.57 |
| RDIDLKNRRGGPAFAFVEFEDPRD | 4.62 |
| RDIDLKNRRGGPGFAFVEFEDPRD | 3.86 |
| RDIDLKNRRGGPLFAFVEFEDPRD | 3.28 |
| RDIDLKNRRGGPEFAFVEFEDPRD | 4.83 |
| RDIDLKNRRGGPDFAFVEFEDPRD | 4.58 |
| RDIDLKNRRGGPYFAFVEFEDPRD | 4 |

| Variant | protein stability index |
| --- | --- |
| RDIDLKNRRGGPQFAFVEFEDPRD | 4.79 |
| RDIDLKNRRGGPTFAFVEFEDPRD | 4.34 |
| RDIDLKNRRGGPVFAFVEFEDPRD | 3.37 |
| RDIDLKNRRGGPWFAFVEFEDPRD | 3.39 |
| RDIDLKNRRGGPMFAFVEFEDPRD | 4.02 |
| RDIDLKNRRGGPNFAFVEFEDPRD | 4.59 |
| RDIDLKNRRGGPFFAFVEFEDPRD | 3.42 |
| RDIDLKNRRGGPIFAFVEFEDPRD | 3.34 |
| RDIDLKNRRGGPRFAFVEFEDPRD | 4.23 |
| RDIDLKNRRGGPCFAFVEFEDPRD | 4.51 |
| RDIDLKNRRGGPKFAFVEFEDPRD | 4.02 |
| RDIDLKNRRGGPHFAFVEFEDPRD | 4.65 |
| RDIDLKNRRGGPPFAFQEFEDPRD | 4.61 |
| RDIDLKNRRGGPPFAFHEFEDPRD | 4.38 |
| RDIDLKNRRGGPPFAFKEFEDPRD | 4.62 |
| RDIDLKNRRGGPPFAFSEFEDPRD | 4.16 |
| RDIDLKNRRGGPPFAFGEFEDPRD | 4.43 |
| RDIDLKNRRGGPPFAFIEFEDPRD | 3.97 |
| RDIDLKNRRGGPPFAFAEFEDPRD | 4.35 |
| RDIDLKNRRGGPPFAFWEFEDPRD | 3.92 |
| RDIDLKNRRGGPPFAFTEFEDPRD | 4.75 |
| RDIDLKNRRGGPPFAFYEFEDPRD | 4.42 |
| RDIDLKNRRGGPPFAFDEFEDPRD | 4.77 |
| RDIDLKNRRGGPPFAFEEFEDPRD | 4.95 |

| Variant | protein stability index |
| --- | --- |
| RDIDLKNRRGGPPFAFLEFEDPRD | 4.13 |
| RDIDLKNRRGGPPFAFFEFEDPRD | 4.64 |
| RDIDLKNRRGGPPFAFNEFEDPRD | 4.62 |
| RDIDLKNRRGGPPFAFREFEDPRD | 4.33 |
| RDIDLKNRRGGPPFAFCEFEDPRD | 4.2 |
| RDIDLKNRRGGPPFAFMEFEDPRD | 4.24 |
| RDIDLKNRRGGPPFAFPEFEDPRD | 4.63 |
| RDIDLKNRRGGPPFAFVEGEDPRD | 4.03 |
| RDIDLKNRRGGPPFAFVEYEDPRD | 4.11 |
| RDIDLKNRRGGPPFAFVEQEDPRD | 3.94 |
| RDIDLKNRRGGPPFAFVESEDPRD | 3.19 |
| RDIDLKNRRGGPPFAFVEREDPRD | 3.38 |
| RDIDLKNRRGGPPFAFVEVEDPRD | 3.03 |
| RDIDLKNRRGGPPFAFVENEDPRD | 3.38 |
| RDIDLKNRRGGPPFAFVEKEDPRD | 3.18 |
| RDIDLKNRRGGPPFAFVEHEDPRD | 3.95 |
| RDIDLKNRRGGPPFAFVEPEDPRD | 3.85 |
| RDIDLKNRRGGPPFAFVEDEDPRD | 3.69 |
| RDIDLKNRRGGPPFAFVETEDPRD | 3.47 |
| RDIDLKNRRGGPPFAFVEMEDPRD | 3.19 |
| RDIDLKNRRGGPPFAFVEIEDPRD | 3.27 |
| RDIDLKNRRGGPPFAFVEWEDPRD | 3.39 |
| RDIDLKNRRGGPPFAFVECEDPRD | 3.05 |
| RDIDLKNRRGGPPFAFVEEEDPRD | 4.77 |

| Variant | protein stability index |
| --- | --- |
| RDIDLKNRRGGPPFAFVEAEDPRD | 2.95 |
| RDIDLKNRRGGPPFAFVELEDPRD | 4.22 |
| RDIDLKNRRGGSPFAFVEFEDPRD | 4 |
| RDIDLKNRRGGIPFAFVEFEDPRD | 3.13 |
| RDIDLKNRRGGLPFAFVEFEDPRD | 3.5 |
| RDIDLKNRRGGMPFAFVEFEDPRD | 3.93 |
| RDIDLKNRRGGVPFAFVEFEDPRD | 3.9 |
| RDIDLKNRRGGDPFAFVEFEDPRD | 5.06 |
| RDIDLKNRRGGQPFAFVEFEDPRD | 4.17 |
| RDIDLKNRRGGAPFAFVEFEDPRD | 4.12 |
| RDIDLKNRRGGTPFAFVEFEDPRD | 4.37 |
| RDIDLKNRRGGFPFAFVEFEDPRD | 3.5 |
| RDIDLKNRRGGYPFAFVEFEDPRD | 3.98 |
| RDIDLKNRRGGWPFAFVEFEDPRD | 3.43 |
| RDIDLKNRRGGNPFAFVEFEDPRD | 4.72 |
| RDIDLKNRRGGHPFAFVEFEDPRD | 4.53 |
| RDIDLKNRRGGEPFAFVEFEDPRD | 4.72 |
| RDIDLKNRRGGRPFAFVEFEDPRD | 3.93 |
| RDIDLKNRRGGKPFAFVEFEDPRD | 4.42 |
| RDIDLKNRRGGGPFAFVEFEDPRD | 4.39 |
| RDIDLKNRRGGCPFAFVEFEDPRD | 4.13 |
| RDIDLKNRRGYPPFAFVEFEDPRD | 3.28 |
